Results on two molecules are retold here after patent US20140235820A1, “METHODS AND COMPOSITIONS FOR MODULATING THE Wnt PATHWAY” (Genentech, Inc., priority 2010, published 2014).

“Also recorded” adds a separate entry of the source.

For experiment [1], the target named is T1, human LRP6 construct E1E4 (amino acids A20-Q1253) (human, UniProt O75581 20-1253, biotinylated for biolayer interferometry).
T1 construct: range 20-1253; Expressed in Tni insect cells; tags not specified for this construct; also called LRP6 E1E4
T1 sequence (looked up): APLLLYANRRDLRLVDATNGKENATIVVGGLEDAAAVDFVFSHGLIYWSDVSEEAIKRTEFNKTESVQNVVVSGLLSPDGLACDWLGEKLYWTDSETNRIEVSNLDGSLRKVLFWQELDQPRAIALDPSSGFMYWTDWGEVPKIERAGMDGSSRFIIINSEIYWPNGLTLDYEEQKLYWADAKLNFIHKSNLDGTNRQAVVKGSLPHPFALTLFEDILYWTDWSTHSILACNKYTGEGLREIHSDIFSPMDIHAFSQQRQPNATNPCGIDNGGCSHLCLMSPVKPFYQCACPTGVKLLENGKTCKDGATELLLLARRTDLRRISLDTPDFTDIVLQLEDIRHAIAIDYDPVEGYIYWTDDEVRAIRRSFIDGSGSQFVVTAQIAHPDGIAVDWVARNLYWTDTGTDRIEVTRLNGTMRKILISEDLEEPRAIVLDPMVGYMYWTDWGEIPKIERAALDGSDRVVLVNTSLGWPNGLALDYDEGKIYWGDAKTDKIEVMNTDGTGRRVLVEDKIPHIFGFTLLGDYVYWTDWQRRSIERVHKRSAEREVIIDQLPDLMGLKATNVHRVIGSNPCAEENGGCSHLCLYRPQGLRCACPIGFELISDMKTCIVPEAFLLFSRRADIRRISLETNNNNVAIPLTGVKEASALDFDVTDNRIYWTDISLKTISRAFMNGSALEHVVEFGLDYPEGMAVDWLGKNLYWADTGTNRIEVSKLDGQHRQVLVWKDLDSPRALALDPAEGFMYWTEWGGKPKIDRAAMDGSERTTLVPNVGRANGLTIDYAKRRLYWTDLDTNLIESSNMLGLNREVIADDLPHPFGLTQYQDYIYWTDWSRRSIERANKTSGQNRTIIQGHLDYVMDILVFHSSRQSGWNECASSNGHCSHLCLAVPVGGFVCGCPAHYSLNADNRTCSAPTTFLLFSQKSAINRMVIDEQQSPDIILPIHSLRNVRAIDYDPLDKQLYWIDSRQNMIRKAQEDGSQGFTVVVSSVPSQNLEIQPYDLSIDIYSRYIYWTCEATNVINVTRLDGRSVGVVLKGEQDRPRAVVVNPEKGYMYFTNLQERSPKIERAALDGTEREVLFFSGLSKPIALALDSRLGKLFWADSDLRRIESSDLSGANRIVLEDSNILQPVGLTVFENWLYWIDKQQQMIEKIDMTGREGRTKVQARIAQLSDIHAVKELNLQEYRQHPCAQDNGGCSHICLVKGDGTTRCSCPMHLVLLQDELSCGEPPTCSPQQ
The experiment is described as follows: BLI (FIG. 9B). The protocol:
(§1) Binding kinetics were measured by biolayer interferometry using an Octet Red instrument (ForteBio) as previously described (11). Streptavidin (SA) biosensors were loaded with biotinylated hLRP6 in 50 mMTris, pH 8, 300 mM NaCl, 5% (v/v) glycerol, and 0.05% (w/v) Triton X-100. The loaded biosensors were washed in the same buffer before carrying out association and dissociation measurements for the indicated times. The Kd of each interaction was determined using steady state-analysis through the Octet Red software v6.3. Each reported value represents an average of three or more experiments at different concentrations, with a fitted experimental curve for which the square of the correlation coefficient (R²) is above 0.96.

For experiment [2], the target named is T2, human LRP6 construct E1E2 (amino acids A20-E631) (human, UniProt O75581 20-631, biotinylated for biolayer interferometry).
T2 construct: range 20-631; also called LRP6 E1E2
T2 sequence (looked up): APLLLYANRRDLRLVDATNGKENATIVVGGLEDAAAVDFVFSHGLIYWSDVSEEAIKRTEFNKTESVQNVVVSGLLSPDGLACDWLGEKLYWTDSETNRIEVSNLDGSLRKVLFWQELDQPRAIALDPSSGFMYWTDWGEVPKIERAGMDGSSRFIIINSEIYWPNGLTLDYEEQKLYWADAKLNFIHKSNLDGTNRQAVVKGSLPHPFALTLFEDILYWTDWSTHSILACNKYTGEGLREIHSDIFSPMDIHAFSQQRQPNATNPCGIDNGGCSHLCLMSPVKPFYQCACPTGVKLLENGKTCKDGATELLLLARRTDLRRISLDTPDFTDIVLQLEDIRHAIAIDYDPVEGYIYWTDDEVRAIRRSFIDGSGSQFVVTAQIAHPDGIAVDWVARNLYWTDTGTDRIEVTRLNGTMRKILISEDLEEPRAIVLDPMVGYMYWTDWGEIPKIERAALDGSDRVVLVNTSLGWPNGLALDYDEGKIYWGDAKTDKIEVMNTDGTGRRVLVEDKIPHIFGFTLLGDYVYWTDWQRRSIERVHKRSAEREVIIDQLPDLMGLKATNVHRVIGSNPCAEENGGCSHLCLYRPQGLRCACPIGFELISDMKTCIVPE
The experiment can be described thus: BLI (FIG. 9B). The protocol:
as §1

The target of a further experiment is T3, LRP6 E3E4 (Homo sapiens, UniProt O75581).
T3 construct: construct E3E4 amino acids E631-Q1253 of LPR6; made in house; host or cells: Tni insect cells (baculovirus, secreted)
T3 sequence (O75581 631-1253): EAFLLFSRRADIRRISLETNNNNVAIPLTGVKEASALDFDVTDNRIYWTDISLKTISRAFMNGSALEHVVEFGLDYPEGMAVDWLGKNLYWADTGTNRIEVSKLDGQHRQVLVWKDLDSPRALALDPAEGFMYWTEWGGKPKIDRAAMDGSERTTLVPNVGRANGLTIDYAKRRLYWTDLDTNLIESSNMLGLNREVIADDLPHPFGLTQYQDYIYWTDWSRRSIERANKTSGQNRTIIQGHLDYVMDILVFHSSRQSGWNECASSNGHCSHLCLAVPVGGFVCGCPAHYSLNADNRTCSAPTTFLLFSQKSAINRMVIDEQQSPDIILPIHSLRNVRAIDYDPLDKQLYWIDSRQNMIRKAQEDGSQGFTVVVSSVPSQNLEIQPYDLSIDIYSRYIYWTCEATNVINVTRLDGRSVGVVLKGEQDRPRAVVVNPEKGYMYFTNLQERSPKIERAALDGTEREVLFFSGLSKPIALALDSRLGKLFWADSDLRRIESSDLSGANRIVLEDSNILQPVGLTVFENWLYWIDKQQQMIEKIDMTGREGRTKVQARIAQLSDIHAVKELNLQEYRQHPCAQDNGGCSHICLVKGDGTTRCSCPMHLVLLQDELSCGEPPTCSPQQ
The experiment is described as follows: Biolayer interferometry binding to LRP6 E3E4. The protocol:
as §1, with “(R^2)” for “(R²)”
(§2) The interaction of the different Dkks and sclerostin with various domains of LRP6 was measured using a biolayer interferometry assay (11). Purified receptors contained individual β-propeller-EGF-like units (E1, E2, or E4), two β-propellers (E1E2 or E3E4), or four β-propellers (E1E4))—as follows:
(§3) Human LRP6: construct E1E4-amino acids A20-Q1253 of LPR6; construct E1E2-amino acids A20-E631 of LPR6; construct E3E4 amino acids E631-Q1253 of LPR6; construct E1-amino acids A20-D325 of LPR6; construct E2-amino acids […]-E631 of LPR6; construct E4-T933-Q1253. The individual LRP6 β-propeller E3 could not be expressed.
In general terms: BLI is a label-free optical method that tracks binding on a fibre tip over time.

The target of a further experiment is T4, LRP6 E1E4 (Homo sapiens, UniProt O75581).
T4 construct: construct E1E4-amino acids A20-Q1253 of LPR6; made in house; host or cells: Tni insect cells (baculovirus, secreted)
T4 sequence (O75581 20-1253): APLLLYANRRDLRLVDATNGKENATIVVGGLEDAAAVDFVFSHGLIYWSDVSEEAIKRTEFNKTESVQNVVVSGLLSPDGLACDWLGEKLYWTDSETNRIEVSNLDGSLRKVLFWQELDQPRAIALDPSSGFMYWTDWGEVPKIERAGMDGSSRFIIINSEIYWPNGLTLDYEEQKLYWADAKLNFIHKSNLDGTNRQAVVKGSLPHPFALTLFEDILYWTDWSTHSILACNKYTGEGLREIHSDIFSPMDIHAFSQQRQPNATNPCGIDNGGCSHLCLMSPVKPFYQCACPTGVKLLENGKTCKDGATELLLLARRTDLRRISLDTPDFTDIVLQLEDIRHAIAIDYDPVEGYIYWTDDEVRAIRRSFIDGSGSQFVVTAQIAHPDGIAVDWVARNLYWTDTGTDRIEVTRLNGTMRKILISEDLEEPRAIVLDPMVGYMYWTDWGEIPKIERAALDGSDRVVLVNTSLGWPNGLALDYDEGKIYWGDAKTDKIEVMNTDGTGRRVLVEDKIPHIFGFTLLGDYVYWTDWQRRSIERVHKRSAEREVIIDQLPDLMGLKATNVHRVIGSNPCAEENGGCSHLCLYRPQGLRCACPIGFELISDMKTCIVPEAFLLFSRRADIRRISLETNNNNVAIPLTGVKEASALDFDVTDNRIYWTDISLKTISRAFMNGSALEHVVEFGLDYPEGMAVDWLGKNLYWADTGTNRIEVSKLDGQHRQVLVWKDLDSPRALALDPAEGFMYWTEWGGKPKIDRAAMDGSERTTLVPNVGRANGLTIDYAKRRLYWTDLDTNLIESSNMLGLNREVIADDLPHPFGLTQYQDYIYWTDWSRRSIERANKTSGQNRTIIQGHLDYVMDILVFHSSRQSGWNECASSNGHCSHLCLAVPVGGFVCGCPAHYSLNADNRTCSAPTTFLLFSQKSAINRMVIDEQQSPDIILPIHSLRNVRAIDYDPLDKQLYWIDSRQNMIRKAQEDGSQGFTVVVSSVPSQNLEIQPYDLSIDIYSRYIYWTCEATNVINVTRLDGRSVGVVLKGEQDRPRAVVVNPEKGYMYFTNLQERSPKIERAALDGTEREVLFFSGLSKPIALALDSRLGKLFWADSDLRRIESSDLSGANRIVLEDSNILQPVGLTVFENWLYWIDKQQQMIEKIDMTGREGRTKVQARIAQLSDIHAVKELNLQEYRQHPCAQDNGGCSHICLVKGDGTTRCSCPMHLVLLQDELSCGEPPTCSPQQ
The experiment is described as follows: Biolayer interferometry binding to LRP6 E1E4. The protocol:
as §1, with “(R^2)” for “(R²)”
as §2, §3

The target in experiment [3] is T2, human LRP6 construct E1E2 (amino acids …). The experiment can be described thus: BLI (Octet Red), biotinylated LRP6 on streptavidin tips, steady state. The protocol: as §1
The target of experiment [4] is T5, human LRP6 construct E3E4 (amino acids E631-Q1253) (human, UniProt O75581 631-1253, biotinylated for biolayer interferometry).
T5 construct: range 631-1253; also called LRP6 E3E4
T5 sequence (looked up): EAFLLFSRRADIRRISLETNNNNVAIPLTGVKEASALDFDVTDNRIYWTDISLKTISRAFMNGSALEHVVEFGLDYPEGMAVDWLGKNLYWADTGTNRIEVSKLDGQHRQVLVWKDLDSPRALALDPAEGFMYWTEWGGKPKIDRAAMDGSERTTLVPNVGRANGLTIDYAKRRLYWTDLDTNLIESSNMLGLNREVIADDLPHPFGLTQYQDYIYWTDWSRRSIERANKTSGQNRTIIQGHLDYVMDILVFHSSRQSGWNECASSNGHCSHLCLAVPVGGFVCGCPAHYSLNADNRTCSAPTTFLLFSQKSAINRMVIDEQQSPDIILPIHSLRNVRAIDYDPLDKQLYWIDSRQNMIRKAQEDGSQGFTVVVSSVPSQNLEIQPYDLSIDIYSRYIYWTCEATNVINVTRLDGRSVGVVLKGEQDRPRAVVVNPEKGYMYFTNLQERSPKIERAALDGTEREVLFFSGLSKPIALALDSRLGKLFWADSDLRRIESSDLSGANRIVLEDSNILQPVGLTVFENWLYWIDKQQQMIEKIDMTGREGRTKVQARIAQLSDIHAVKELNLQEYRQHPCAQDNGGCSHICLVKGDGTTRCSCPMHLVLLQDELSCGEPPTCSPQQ
The description is as above. The protocol: as §1

B1: Dkk1 H204E (ligand, human, UniProt O94907 32-266, looked up)
chain: TLNSVLNSNAIKNLPPPLGGAAGHPGSAVSAAPGILYPGGNKYQTIDNYQPYPCAEDEECGTDEYCASPTRGGDAGVQICLACRKRRKRCMRHAMCCPGNYCKNGICVSSDQNHFRGEIEETITESFGNDHSTLDGYSRRTTLSSKMYHTKGQEGSVCLRSSDCASGLCCAREFWSKICKPVLKEGQVCTKHRRKGSHGLEIFQRCYCGEGLSCRIQKDHHQASNSSRLHTCQRH
For B1, the binding result in experiment [1] and in experiment [2] was “binds” in each case. Also, the “binding to LRP6 E3E4 (in words)” value with LRP6 E3E4 was “interfered with binding; also recorded: affect binding”. Besides, the “binding to LRP6 E1E4 (in words)” value with LRP6 E1E4 is “retain binding”.

B2: Dkk2 (ligand)
chain: KLNSIKSSLGGETPAQSANRSAGMNQGLAFGGSKKGKSLGQAYPCSSDKECEVGRYCHSPHQGSSACMLCRRKKKRCHRDGMCCPGTRCNNGICIPVTESILTPHIPALDGTRHRDRNHGHYSNHDLGWQNLGRPHSKMPHIKGHEGDPCLRSSDCIDGFCCARHFWTKICKPVLHQGEVCTKQRKKGSHGLEIFQRCDCAKGLSCKVWKDATYSSKARLHVCQKI
In the case of B2, the values for the equilibrium dissociation constant (Kd) in experiment [3] and in experiment [4] were 0.053 µM and 0.038 µM, respectively.
